This is an account of results in patent US20230257469A1 (SINOCELLTECH, published 2023).

Read-outs that look alike come from different tables or passages of the source.

The target in test [1] is T1, EGFR on tumor cells (UniProt P00533 25-1210, limits assumed). Kind of test: cell-based or functional assay.
Test [2] deals with T2, Recombinant human EGFR-His protein (human, UniProt P00533 25-645).
T2 construct: Bought protein; also called recombinant human EGFR protein; human EGFR protein; not shown: His tag
In words: ELISA as in Example 1.2.1. Background: ELISA stands for enzyme-linked immunosorbent assay.

The target of test [3] is T2, Recombinant human EGFR-His protein. Kind of test: ELISA of expressed phage-library clones on recombinant human EGFR protein.
Test [4] shares this target. In words: ELISA; EGFR-His coated at 1.37-3000 ng/mL, antibody at 13.89 nM; EC50 counted on the coated antigen concentration.
Test [5] deals with T1, EGFR on tumor cells. In words: cell-based or functional assay. This is another data set of the same source.
Test [6] concerns the target T2, Recombinant human EGFR-His protein. In words: ELISA as in Example 1.2.1; EC50 counted on the coated EGFR-His concentration.
For test [7] the target is unchanged. Kind of test: BLI (Fortebio OctetRED96e), biotinylated recombinant human EGFR protein, fit over several concentrations.
In test [8] the target is T1, EGFR on tumor cells. Kind of test: cell-based or functional assay. The source holds these as a separate data set.
Test [9] concerns the target T1, EGFR on tumor cells. In words: cell-based or functional assay. This is another data set of the same source.

As usually defined, the EC50 is the midpoint of the concentration-response curve. In general, Kd refers to the free concentration of one partner at which half of the binding sites on the other are occupied at equilibrium, for simple one-to-one binding. The term koff denotes the first-order rate constant of dissociation. The term kon denotes a measure of how fast the partners come together.

SCT200 (antibody): in the test with EGFR on tumor cells [1], the EC50 (nM), inhibition of proliferation of Fadu cells, ligand: 1 µg /mL EREG is 14.5 nM; the EC50 (nM), inhibition of proliferation of Fadu cells, ligand: None came to 0.129 nM; the EC50 (nM), inhibition of proliferation of MDA-MB-468 cells, ligand: 8 ng/mL HB-EGF is 7.52 nM; the EC50 (nM), inhibition of proliferation of MDA-MB-468 cells, ligand: 1 µg/mL EREG came out at 1.44 nM. In the test with EGFR on tumor cells [1], the EC50 (nM), inhibition of proliferation of MDA-MB-468 cells, ligand: None is 1.97 nM; the Maximum inhibition rate (%), proliferation of Fadu cells, ligand: 4 ng/mL EGF is 68.5%; the Maximum inhibition rate (%), proliferation of Fadu cells, ligand: 8 ng/mL HB-EGF is 65%; the Maximum inhibition rate (%), proliferation of Fadu cells, ligand: 1 µg /mL EREG was 48.3%. Further, in the test with EGFR on tumor cells [1], the Maximum inhibition rate (%), proliferation of Fadu cells, ligand: None was 49.7%; the Maximum inhibition rate (%), proliferation of MDA-MB-468 cells, ligand: 8 ng/mL HB-EGF worked out at 53.4%; the Maximum inhibition rate (%), proliferation of MDA-MB-468 cells, ligand: 200 ng/mL BTC worked out at 40.9%; the Maximum inhibition rate (%), proliferation of MDA-MB-468 cells, ligand: 1 µg/mL EREG was 66.7%. The Maximum inhibition rate (%), proliferation of MDA-MB-468 cells, ligand: None with EGFR on tumor cells [1] was 52.3%. In addition, in [2], the EC50 is 0.167 µg/mL.

B1: EGFR-mhPA8 scFv antibody (scFv)
scFv: DIQMTQSPASLAASVGETVTITCRASENIYYSLAWYQQKEGKSPQLLIYITNGLADGVPSRFSGSGSGTQYSMKIDSMQPEDTATYFCKQSYDVPLTFGAGTKLEMKSSGGGGSGGGGGGSSRSSQVQLQQSGPDLVKPGASVRISCKVSGYTFTTYYTHWVKQRPGRGLEWIGWIYPGDVNTKYNEKFKGKATLTADKTSSTAYMQLSSLTSEDSAVYFCAREDPGSNYFDYWGQGTTLTVSS
notes: Screened as a clone of a phage display library in pComb3x; also called EGFR-mhPA8 scFv antibody clone; murine antibody scFv
With B1, the binding result in test [3] was “binds”.

B2: human-mouse chimeric antibody EGFR-mhPA8 (antibody, human IgG1, kappa, V domains shown)
VH: QVQLQQSGPDLVKPGASVRISCKVSGYTFTTYYTHWVKQRPGRGLEWIGWIYPGDVNTKYNEKFKGKATLTADKTSSTAYMQLSSLTSEDSAVYFCAREDPGSNYFDYWGQGTTLTVSS
VL: DIQMTQSPASLAASVGETVTITCRASENIYYSLAWYQQKEGKSPQLLIYITNGLADGVPSRFSGSGSGTQYSMKIDSMQPEDTATYFCKQSYDVPLTFGAGTKLEMKR
notes: Human IgG1 and kappa constant regions; also called murine antibody EGFR-mhPA8
In the case of B2, the EC50 in test [4] was determined as 0.129 µg/mL. Further, the “EC50 of inhibition of proliferation of MDA-MB-468 cells (WST-8)” value with EGFR on tumor cells [5] was 2.78 nM.

B3: humanized antibody EGFR-HPA8 (antibody, human IgG1, kappa, V domains shown)
VH: EVQLVQSGAEVKKPGATVKISCKVSGYTFTTYYTHWVKQAPGKGLEWIGWIYPGDVNTKYNEKFKGRVTLTADTSTDTAYMELSSLRSEDTAVYYCAREDPGSNYFDYWGQGTLVTVSS
VL: DIQMTQSPSSLSASVGDRVTITCRASENIYYSLAWYQQKPGKAPQLLIYITDGLADGVPSRFSGSGSGTDYTLKIDSLQPEDFATYYCKQSYDVPLTFGGGTKVEIKR
notes: IgG1/kappa; expressed in HEK-293 cells (fut8 knockout), ADCC-enhanced; also called EGFR-HPA8-Ae0
Take B3: in test [6], the EC50 came to 0.117 µg/mL. Besides, in [7], the Kd came to 0.0069 nM, the koff came out at 1.1e-05 s⁻¹ and the kon came to 1.59e+06 M⁻¹ s⁻¹. Moreover, the “EC50 for the induction of ADCC, recombinant CD16a reporter gene system (Jurkat-NFAT-Luc2p-CD16A effector cells, A431 target cells)” value with EGFR on tumor cells [5] was found to be 0.008 nM. Also, in the test with EGFR on tumor cells [8], the “EC50 (nM), inhibition of proliferation of Fadu cells, ligand: 1 µg /mL EREG” value is 10.9 nM and the “EC50 (nM), inhibition of proliferation of Fadu cells, ligand: None” value stood at 0.126 nM. In addition, in the test with EGFR on tumor cells [9], the “EC50 (nM), inhibition of proliferation of MDA-MB-468 cells, ligand: 8 ng/mL HB-EGF” value was 2.64 nM; the “EC50 (nM), inhibition of proliferation of MDA-MB-468 cells, ligand: 1 µg/mL EREG” value was determined as 0.81 nM; the “EC50 (nM), inhibition of proliferation of MDA-MB-468 cells, ligand: None” value turned out to be 0.9 nM.
